# Target: HLA-A*02:01 (Homo sapiens, UniProt P04439, D140Y/D185E/D98H/E176V/E277Q/G131W/G231S/I119V/I121R/I166T/I218V/L300P/L318F/N151K/N90K/P208A/P217A/Q86G/Q94H/R138H/R169H/T345S)
# Experiment: MHC binding assay: UV-ligand exchange with β2m ELISA (peptide exchange yield)
# Details: binding to HLA-A*02:01 evaluated by peptide exchange yield (UV-ligand exchange, β2m ELISA)
# Summary of the method: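 Exchange yield, UV-ligand exchange: 100-fold diluted samples on streptavidin plates, 1 h at 37 °C; HRP anti-β2m 1 h at 37 °C; TMB read at 450 nm.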
row,Substance,Peptide exchange
1,277 (KLQEELNKV; listed as Homo sapiens) [compound 277],+++ (≥50 = +++)
2,58 (HLLGEGAFAQV; listed as Homo sapiens) [compound 58],+++ (≥50 = +++)
3,276 (RMPTVLQCV; listed as Homo sapiens) [compound 276],+++ (≥50 = +++)
4,24 (KVWSDVTPL; listed as Homo sapiens) [compound 24],+++ (≥50 = +++)
5,21 (YLMDDFSSL; listed as Homo sapiens) [compound 21],+++ (≥50 = +++)
6,226 (SLAGNLQEL; listed as Homo sapiens) [compound 226],+++ (≥50 = +++)
7,187 (SILKEDPFL; listed as Homo sapiens) [compound 187],++ (≥20% = ++)
8,284 (KLMDPGSLPPL; listed as Homo sapiens) [compound 284],++ (≥20% = ++)
9,9 (SLITGQDLLSV; listed as Homo sapiens) [compound 9],+++ (≥50 = +++)
10,52 (TIGIPFPNV; listed as Homo sapiens) [compound 52],++ (≥20% = ++)
11,256 (FLNDIFERI; listed as Homo sapiens) [compound 256],+++ (≥50 = +++)
12,267 (YLLDMPLWYL; listed as Homo sapiens) [compound 267],+++ (≥50 = +++)
13,243 (GLAEFQENV; listed as Homo sapiens) [compound 243],++ (≥20% = ++)
14,13 (RLHDENILL; listed as Homo sapiens) [compound 13],+++ (≥50 = +++)
15,129 (KMASKVTQV; listed as Homo sapiens) [compound 129],++ (≥20% = ++)
16,246 (ALAGIVTNV; listed as Homo sapiens) [compound 246],+++ (≥50 = +++)
17,231 (LLDDIFIRL; listed as Homo sapiens) [compound 231],+++ (≥50 = +++)
18,87 (KLLSLLEEA; listed as Homo sapiens) [compound 87],+++ (≥50 = +++)
19,199 (SVADLAHVL; listed as Homo sapiens) [compound 199],++ (≥20% = ++)
20,144 (FLISQTPLL; listed as Homo sapiens) [compound 144],+++ (≥50 = +++)
21,45 (FLPVSVVYV; listed as Homo sapiens) [compound 45],+++ (≥50 = +++)
22,11 (LLDPKTIFL; listed as Homo sapiens) [compound 11],+++ (≥50 = +++)
23,26 (VLDGKVAVV; listed as Homo sapiens) [compound 26],+++ (≥50 = +++)
24,99 (TLFGIQLTEA; listed as Homo sapiens) [compound 99],+++ (≥50 = +++)
25,137 (KLIYKDLVSV; listed as Homo sapiens) [compound 137],++ (≥20% = ++)
26,88 (LLLPLELSLA; listed as Homo sapiens) [compound 88],+++ (≥50 = +++)
27,72 (VLSTRVTNV; listed as Homo sapiens) [compound 72],++ (≥20% = ++)

row,Substance,Peptide exchange
1,6 (FLNAIETAL; listed as Homo sapiens) [compound 6],++++ (≥75% = ++++)
2,130 (QLYGSAITL; listed as Homo sapiens) [compound 130],+++ (≥50 = +++)
3,178 (SLVSWQLLL; listed as Homo sapiens) [compound 178],++++ (≥75% = ++++)
4,251 (LLWGNLPEI; listed as Homo sapiens) [compound 251],+++ (≥50 = +++)
5,214 (ALFETLIQL; listed as Homo sapiens) [compound 214],+++ (≥50 = +++)
6,200 (IMPTFDLTKV; listed as Homo sapiens) [compound 200],+++ (≥50 = +++)
7,136 (LLWDAPAKC; listed as Homo sapiens) [compound 136],+++ (≥50 = +++)
8,55 (HLFDKIIKI; listed as Homo sapiens) [compound 55],+++ (≥50 = +++)
9,235 (SLLNQPKAV; listed as Homo sapiens) [compound 235],++ (≥20% = ++)
10,173 (RLIDIYKNV; listed as Homo sapiens) [compound 173],+++ (≥50 = +++)
11,108 (FIANLPPELKA; listed as Homo sapiens) [compound 108],+++ (≥50 = +++)
12,208 (HLNNDRNPL; listed as Homo sapiens) [compound 208],++ (≥20% = ++)
13,123 (QTAPEEAFIKL; listed as Homo sapiens) [compound 123],+ (≥10% = +)
14,181 (LLWAPTAQA; listed as Homo sapiens) [compound 181],+++ (≥50 = +++)
15,273 (SLNKQIETV; listed as Homo sapiens) [compound 273],++ (≥20% = ++)
16,95 (KLIDEDEPLFL; listed as Homo sapiens) [compound 95],+++ (≥50 = +++)
17,17 (GLLPSAESIKL; listed as Homo sapiens) [compound 17],++++ (≥75% = ++++)
18,194 (KLLEEVQLL; listed as Homo sapiens) [compound 194],++ (≥20% = ++)
19,153 (KLVELEHTL; listed as Homo sapiens) [compound 153],+++ (≥50 = +++)
20,98 (FVQEKIPEL; listed as Homo sapiens) [compound 98],+++ (≥50 = +++)
21,29 (KMISAIPTL; listed as Homo sapiens) [compound 29],++ (≥20% = ++)
22,20 (ALVEKGEFAL; listed as Homo sapiens) [compound 20],++ (≥20% = ++)
23,121 (ALYVQAPTV; listed as Homo sapiens) [compound 121],++ (≥20% = ++)
24,175 (SLLDLVQSL; listed as Homo sapiens) [compound 175],+++ (≥50 = +++)
25,134 (SLYKSFLQL; listed as Homo sapiens) [compound 134],++ (≥20% = ++)
26,36 (TVLQELINV; listed as Homo sapiens) [compound 36],+++ (≥50 = +++)
27,250 (LMQDSRLYL; listed as Homo sapiens) [compound 250],+++ (≥50 = +++)

row,Substance,Peptide exchange
1,110 (QIQGQVSEV; listed as Homo sapiens) [compound 110],++ (≥20% = ++)
2,33 (TLDRNSLYV; listed as Homo sapiens) [compound 33],++ (≥20% = ++)
3,174 (ALYSGDLHAA; listed as Homo sapiens) [compound 174],++ (≥20% = ++)
4,101 (SLLEVNEASSV; listed as Homo sapiens) [compound 101],+++ (≥50 = +++)
5,183 (ALSYILPYL; listed as Homo sapiens) [compound 183],+++ (≥50 = +++)
6,38 (VLQQESNFL; listed as Homo sapiens) [compound 38],++ (≥20% = ++)
7,131 (SLYPHFTLL; listed as Homo sapiens) [compound 131],+++ (≥50 = +++)
8,190 (SLSTELFKV; listed as Homo sapiens) [compound 190],+++ (≥50 = +++)
9,31 (GLLETTGLLAT; listed as Homo sapiens) [compound 31],+++ (≥50 = +++)
10,70 (GLTEKTVLV; listed as Homo sapiens) [compound 70],++ (≥20% = ++)
11,65 (SLSEKSPEV; listed as Homo sapiens) [compound 65],++ (≥20% = ++)
12,132 (ALLNNVIEV; listed as Homo sapiens) [compound 132],+++ (≥50 = +++)
13,66 (AMFPDTIPRV; listed as Homo sapiens) [compound 66],++ (≥20% = ++)
14,171 (LLLLDVPTA; listed as Homo sapiens) [compound 171],++ (≥20% = ++)
15,234 (VLLNEILEQV; listed as Homo sapiens) [compound 234],++++ (≥75% = ++++)
16,272 (FVMEGEPPKL; listed as Homo sapiens) [compound 272],++ (≥20% = ++)
17,224 (LLFDWSGTGRADA; listed as Homo sapiens) [compound 224],+++ (≥50 = +++)
18,281 (LLLESDPKVYSL; listed as Homo sapiens) [compound 281],++ (≥20% = ++)
19,227 (SEMEELPSV; listed as Homo sapiens) [compound 227],+ (≥10% = +)
20,211 (LLTTVLINA; listed as Homo sapiens) [compound 211],+++ (≥50 = +++)
21,59 (ALADGIKSFLL; listed as Homo sapiens) [compound 59],+++ (≥50 = +++)
22,69 (LKVLKADVVL; listed as Homo sapiens) [compound 69],++ (≥20% = ++)
23,77 (ALYGNVQQV; listed as Homo sapiens) [compound 77],+++ (≥50 = +++)
24,249 (YLYQILQGI; listed as Homo sapiens) [compound 249],+++ (≥50 = +++)
25,103 (YLADTVQKL; listed as Homo sapiens) [compound 103],++ (≥20% = ++)
26,261 (GLAALAVHL; listed as Homo sapiens) [compound 261],+++ (≥50 = +++)

# From patent US10745460B2, “Peptides and combination of peptides for use in immunotherapy against various tumors” (Immatics Biotechnologies GmbH, priority 2015, dated 2020)
